Assay results taken from a protein production outcome set (Wang et al. 2014).

Assay: label from the status in PepcDB records

Sequence | protein production
MHTALINHIRKFIFLTDEDAGTLSAFFQLKKVRKKETLLKTGEICRINYFVVKGCLRLFFIDEKGIEQTTQFAIENWWLSDYMAFQKQQPADFYIQSVENCELLSITYTEQENLFERIPALERYFRLVYQKSFAAAQLRSKFQHMYSKEEQYHNFSSRFPEFIQRVPQYLLASYLGFTPEYLSEIRKKYIS | not failed
MHTARFPSSATPSIFFRYFMALNEQDVARIARLALIELPPDQRGRAQAELNGILHLIERLQAVDTQGVEPLAHPLSAHEDITLRLREDAVSEQATEARRAELLANAPESADGLFLVPKVIE | failed
MHTLEQLRAGALTGIQALKLSENLTEVPAEVFQLADTLEILDLSGNRLHSLPQEMACLTRLRILFLSDNDFTIFPEVLKELKQLDMLGIKANNIQVIAEDAIPVSLRWLILTDNCIEALPVSIGRCTKLQKVMLAGNQLSGLPDELAACRNIELLRISANNMHTFPEVVKQLPRLAWLAYSSNPFQVNRSSFNALPVIAWENVALMEQLGAGASGIIYKARLNTGKSPEDVAVKVFKGAVTSDGLPEDEMTACMQAGRNSHLVSVLGVIGGHPEGMHGLVMELIPAEYKNLGRPPSFVTCTRDTFAAGTRFTAQQMLLILKGVAEAAKQLHDNGIMHGDLYAHNTLINEKYHSLFGDFGAATLYDKNNRDEAFFLERLDVRAFGCLADDLLQYSVCTKEDEWCLETLKRLSAGCMNEEPDKRPAFNTIVYELQLLQNTHLEHHHHHH | not failed
MHVDIELPLGRATALQRLRAQGFCVLTPAALETLTGMPLDAFDMMLPYWEELAPDLHLKDGGHYRYRRHGCFMQTLQPGQLETVQHRAHWQPTTYNALHGGMERWFEPLSNEMIHLPSWSALLVALGELFAKLRAPQGGRWYIEAHPFRIDTEGGVGRPTPEGAHRDGVDFVAVVFIGRQGVRGGETRVFDAAGPQGVRFTLEQPWTVLLLDDQQVIHESTPLLPLDPADPAVPAHRDTLVLTYRSGGFQAPA | not failed
MHVEQTRINMQSQGQSHQLPSAAHILLDQNPNSTGSNLVVKQNDIQSLSSVGLLELAHREYQAVDYESAEKHCMQLWRQDSTNTGVLLLLSSIHFQCRRLDKSAQFSTLAIKQNPVLAEAYSNLGNVFKERGQLQEALDNYRRAVRLKPDFIDGYINLAAALVAARDMESAVQAYITALQYNPDLYCVRSDLGNLLKALGRLEEAKACYLKAIETCPGFAVAWSNLGCVFNAQGEIWLAIHHFEKAVTLDPNFLDAYINLGNVLKEARIFDRAVAAYLRALNLSPNNAVVHGNLACVYYEQGLIDLAIDTYRRAIELQPNFPDAYCNLANALKEKGQVKEAEDCYNTALRLCSNHADSLNNLANIKREQGYIEEATRLYLKALEVFPDFAAAHSNLASVLQQQGKLKEALMHYKEAIRIQPTFADAYSNMGNTLKELQDVSGALQCYTRAIQINPAFADAHSNLASIHKDSGNIPEAIQSYRTALKLKPDFPDAYCNLAHCLQIVCDWTDYDIRMKKLVSIVTEQLEKNRLPSVHPHHSMLYPLTHDCRKAIAARHANLCLEKVHVLHKKPYNFLKKLPTKGRLRIGYLSSDFGNHPTSHLMQSVPGLHDRSKVEIFCYALSPDDGTTFRHKISRESENFVDLSQIPCNGKAADKIFNDGIHILVNMNGYTKGARNEIFALRPAPIQVMWLGYPGTSGASFMDYIITDSVTSPLELAYQYSEKLSYMPHTYFIGDHKQMFPHLKERIIVCDKQQSSVVDNVTVINATDLSPLVENTDVKEIKEVVNAQKPVEITHKVAELPNTTQIVSMIATGQVQTSLNGVVVQNGLATTQTNNKAATGEEVPQNIVITTRRQYMLPDDAVVYCNFNQLYKIDPQTLESWVEILKNVPKSVLWLLRFPAVGEQNIKKTVSDFGISPDRVIFSNVAAKEEHVRRGQLADICLDTPLCNGHTTSMDVLWTGTPVVTLPGETLASRVAASQLATLGCPELIARTREEYQNIAIRLGTKKEYLKALRAKVWKARVESPLFDCSQYAKGLEKLFLRMWEKYENGELPDHISAV | failed
MHVNPLISVARSKASALFAALALVLVVTLTLAGCSSDKSGETTAEAKKDPSSIRVVALDWRYEEILHALGITPVGIVEIGKSKEPQTLKGELEGVTSVGQAKQPNLEVIQSLEPDLILASPTRQAAIMDQLKEIAPTHAYGDTSYTEVLDAMDDIATKVGAEDKAKEVRTRIESKIAQAKNKVEPGTRTALIGWSKNTLYTWVKDSFAGSLLTAAGYEYGYDGEKSAIESKTDVAELTGDKLPEMKLDVMYLYNDIEGFRSSPYADVVSNIVDVEQDTWSRSRGPLAAEAMLDQIINS | failed
MIAAVAVFALTYVAVAAGRFPYLSLDRPAAALLGAVLMVALGVLTPAEGGAAVNGETLGLLLGMMVLTAYLGEAGFFRWASWRVLRAAGTPRTLLWGVVFTAGALSALLVNDTVCLMMTPLVLRMVDDADLPPLPYLLAVAFGSNAGSAATLTGNPQNMIVGTLSGIGYGRFAAALALPALASLLLVAALLHALFRRALPRGPLAGGRPAAPAVDRALLAKALGALALAVTGFLLGLELAWTALFAAALCMAIAGRAPREALQRVDWPLLVFFAGLFVVVAGIGRAGVTERMYQAVAPLLGADPARQSAVFGLFSIAASQVVSNVPFVILAGEWIPRLADPTLLWLATALCATLAGNLTIVGSVANVIVLELAGSRGRIGFWRFFRVGAVVTAATVAAGLGILLLEHRLGLIG | failed
MIALHTLLCADTPDDTPVCFDETTTMTRGMFRAHVAACIAAWSDRCANRYALCIDDPFAFACALFALLASGKAVVIPASSAPAYLASIADAYDSALTDGDMEGIISQAAQPPGAALLRPIAPHAPITLYTSGSSAAPKAIHKTLAQFDAEVRTLEDHWGEWIGPGAILASVPHHHIYGLLFRIFWPLASGRAFGRRTYAEPHALQTALTRRETAAIVSSPAQLARWPSLPGFDTLSPLPAAVFSSGGPLDEAAAATFASAHGTAPTEIYGSTETGGIAWRRRNESDAWQAFANVAVRREADGALSVRSPHLGHPDWHRTDDAAEFDDAGRFRLRGRMDRIVKLDGKRVSLPEIENWLGLHPYVAQSAAVLLPGASRERLGVLSALTSAGVEALRQHGRIGLAKTLRRHLAAYVAPTLIPRKWRFRMSLPVDARGKLPASAVAASFAAGRKGFEMLSHVRDAEGDHYELRVPPELVHFRGHFPGLPILPGVVLVDWIACLAAELADSTRSIRSIDQLKFMAPVPPAALVSVQLTHEPQRCRVRFRARLGTRECASGALVYREAD | failed
MIAPSRNLLLCNKGKTELNHSFSMLQAIVESTPYGLLVTNKHGHLLCYNQPYMDMWRIPPEVMVNARHQIIFGHYSSQLRDPQQFLHSTEVIYGTWLPESFDILEFLDGRAFERHTKATTLEGPNMVRVWSFKDITERRQAEAYKAQLAAMVESSDDAIIVKDLNAIITSWNAGAERIFGYQASEITGSSILALIPPERHEEEKGIMSLVKSGNRVDHFETMWWGKGKKPIDVSVTTSAVKDSDGNIVGISQIARDITKRKESQKRIEYLAHYDPLTGLPNRALLADRMKTAIENAKRYSFQLAVLFVDLDHFKLINDSLGHEIGDKLLKIVAERMRSRLRQTDTVSRLGGDEFIILLSRINAASDAACVAEKIIAALSQPYHLEQHELGLGASIGISIYPDSGKDTSSLLRSADEAMYSAKGQGRNRYHGP | failed
MIATTSQQSFNLLRTLAVQKASDFADEFYIYMLKDQEASLFLSSQQVHDRLHGSMSKWIADILTNTGDSLADLINHQKKIGQIHARIGIPVDLVERGARRLKWHLYEHIAQVADDKALCFDAMRFASISMDIAIEIMSKTYSQSHDLEHHHHHH | failed
MICLPETGFLAEASPRLKQMLAAQAAEIGLARGDTLFKQGDPGDALYAVLSGALEISILSLDGRKLSLDLVGPGAVFGEIALFDPGPRTATVSAAEPARVLRVLSADVMAELRRHPELAIDMVRLAGQRMRWMGGQLNEQVFLPVPTRLARKLLHLAPHHDAGGATVRLSQAELAEYVGATREAVSKTLAHWKRMGVIEVARGTLAIRDPQALRALADPDQI | failed
MIDALLNFDFIRYSLISGLLIGFIAPLIGAFIVVRRLSLIADALSHVTLGGISFGMFLLTIIPVFSVINPMWFGILFAVIGALLIEKLRTSFSNYQEIAIPIIMSAGIALSAIFISLADGFNQEIVGLLFGSISAVNISDLTTIIIITIIVLIFIVLFYKELFILSFDEEYSKVIGIPKWIQFLFIVIVAMVISASMRVVGILLVSALITLPIAISMRITKGFKQLIALSVILGELSVILGLIIAFYMNISPGGVIVVLLVLMLILTMIIQKLKIKFKKGVV | failed
MIDCLVMAGGQGARMGFREKPLLSVCGQPMLLRVLSALRMACRRIAIVYSRHTPGVKRLCLSGALGAVECIEGPGSYVKDLRLGFSHISTPLLVAPADMPFLNPHHLNLFIDRALADGASIVNLSLRGRGLTGLSVFKHHRGWWRDVETNGCWALDVDTWEDFRRAGELCGGECTGEGLRLELLEHHHHHH | failed
MIDELRALAVFAKTTETGSFRAAARALGLAPSVVSHHVSQLESRLGVALLYRSTRRLSLTPDGQALYGHAQAMLQAAETGLNELAGRAAEPAGTLRLSLPAFFARGPLTTSLAAFSRCHPKVELELDYSDEKRDLIRDGIDLAIRIGELQDSALKSRRLFDMPRLLVAAPSLLDARGEPASPAELADWPWLGIRMRAKRKTLIDAAGRRHDFAIQPRITANSVDAACQLAIAGCGLATPPAFLVENELAAGQLRVVLPDCQVEALGVYAVWPANAARESLTLRLVRFLAELPPHQ | failed
MIDEWPVPTAAAAVIGPSGVLATHGDDAKPFALASVTKLLVARAAQVAIEEGVVELDTPAGPDGSTVRHLLAHTSGVAMNSADTVAQVGQRRVYSNFGFGLLAHAIEDAAEIEFGRYLTEAVFEPLGMSTSKLLGGADAAGFGVTSTVSDLARFAGDLLRPALVSQQMHDEATSVQFPGVNGVLPGFGSQRPNDWGLGFEIRDGKTPHWTGSSNSPRTFGHFGQSGTFLWVDPVADLALLVLTDRDFGDWTYPLWPAISDGVLREIGTHLEHHHHHH | failed
MIDLKKIKRFAQEIHDKNNDGHGFDHIERVVALARKILLTEPSANQELVLATYLHDTYDEKLTDDVPKQKVKVAQFLNELKIDKKLIDELFMIIDNMSFSSNLIERKTLSLNGQIVQDADRLDAMGAWGIVRTLEYGWAKNRVFYDPNLPPLDYNSKEDYHSQKNNSTLNHFYEKLFLLKDLLNTTEGKRLGEKRDKIMHLFVSQIEEEYKETHLLEHHHHHH | failed
MIDMFPMEKGEEQETYELIVRVFHKYVAPVYSENGVARFLGMLSPEGLSEMNNGKNSFVIVARDQSKIIGMISVINDSHIALFFVSPRYQGKGIGKNILDEAIKNCLNRNPELSAVTVSSSPNSKSFYEEAGFEVIGLEHHHHHH | not failed
MIDNENNVNEPAEEESFAELFEKSNRRTERLRPGSKVDARVLKIGAEWVFLDIGSKGEGVMERKELLDKDGNLTVAEGDTIPVWFVKVERNEMRFTTKVGTGQAGLSALEDAYRAGIPVEGNVEKEIKGGFEIKVGGTVRAFCPYSQISLRRAANPAEFVGRQLLFKVVEFAERGRNIVLSHRAILEEEERQKREALKDTLKEGTTLTGTVTRLMPFGAFVDIGGVEGLIPISEAGWSRVKEIGDVLSVGEQVTALVKRIDWENNKISLSLRDVQADPWEGIAERFPEGSYHTGTVARLAPFGAFVTLAPGIDGLIHISKLGAGKRIAHPREVLKEGDAVEVTVEGVDRESRRLSLALAATKRAAEEEERSIAEFRGKGAAQTKDSMGTFGDILKAQLDDKK | failed
MIDSIRVEGFRGLKELELSSLRRINVIVGRNNSGKSTLLEALSLFLGSSDPGTFGNVLHEILIWRGWYGIQTVDDLFYNGGDSFSISSTGKTLEALNSKHSLEFKLNGEPFYKIDRESIRRLASQAVLLARFSPKENFEFLTPLTFRRFGYAESLYSYAYERKVVKDSIKVLNEAYPEVEGFSPLLKEDNWVLYVETKYGVYPYYLMGEGFKSAMIISFLSSLLRDGVLLIDSAEAFHHPKSLKVMIQTLVRGSEKNNVQVFLTTHSLELLDLMLEMGRDGFVIYMKNVEGRIEVESIEFQRASELRESIGVDLRGFLEHHHHHH | not failed
